Values of other authors in paper PMC3185792.
pKd: −log10 of the molar value. Where two headings read alike, the source gives them in different places.

Tests used:
ICAM (Homo sapiens) [1] = target: ICAM (Homo sapiens) (UniProt P05362)
ICAM (Homo sapiens) [2] = target: ICAM (Homo sapiens) (UniProt P05362); remark: listed apart in the source

Sequence of ICAM (Homo sapiens) (P05362 28-480): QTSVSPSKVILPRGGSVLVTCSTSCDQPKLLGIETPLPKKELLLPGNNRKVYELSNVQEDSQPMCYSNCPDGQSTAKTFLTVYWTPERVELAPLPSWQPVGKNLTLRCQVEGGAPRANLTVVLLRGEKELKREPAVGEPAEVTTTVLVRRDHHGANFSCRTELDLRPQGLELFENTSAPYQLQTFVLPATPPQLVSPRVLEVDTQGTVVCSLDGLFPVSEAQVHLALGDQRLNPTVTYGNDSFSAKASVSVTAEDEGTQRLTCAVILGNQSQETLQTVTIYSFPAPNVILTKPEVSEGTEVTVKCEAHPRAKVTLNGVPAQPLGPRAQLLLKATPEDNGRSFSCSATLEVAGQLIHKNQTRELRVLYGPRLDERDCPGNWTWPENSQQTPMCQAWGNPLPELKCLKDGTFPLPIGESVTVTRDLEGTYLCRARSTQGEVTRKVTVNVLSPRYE
Sequence of LFA-1 integrin (open conformation) (P20701 26-1090): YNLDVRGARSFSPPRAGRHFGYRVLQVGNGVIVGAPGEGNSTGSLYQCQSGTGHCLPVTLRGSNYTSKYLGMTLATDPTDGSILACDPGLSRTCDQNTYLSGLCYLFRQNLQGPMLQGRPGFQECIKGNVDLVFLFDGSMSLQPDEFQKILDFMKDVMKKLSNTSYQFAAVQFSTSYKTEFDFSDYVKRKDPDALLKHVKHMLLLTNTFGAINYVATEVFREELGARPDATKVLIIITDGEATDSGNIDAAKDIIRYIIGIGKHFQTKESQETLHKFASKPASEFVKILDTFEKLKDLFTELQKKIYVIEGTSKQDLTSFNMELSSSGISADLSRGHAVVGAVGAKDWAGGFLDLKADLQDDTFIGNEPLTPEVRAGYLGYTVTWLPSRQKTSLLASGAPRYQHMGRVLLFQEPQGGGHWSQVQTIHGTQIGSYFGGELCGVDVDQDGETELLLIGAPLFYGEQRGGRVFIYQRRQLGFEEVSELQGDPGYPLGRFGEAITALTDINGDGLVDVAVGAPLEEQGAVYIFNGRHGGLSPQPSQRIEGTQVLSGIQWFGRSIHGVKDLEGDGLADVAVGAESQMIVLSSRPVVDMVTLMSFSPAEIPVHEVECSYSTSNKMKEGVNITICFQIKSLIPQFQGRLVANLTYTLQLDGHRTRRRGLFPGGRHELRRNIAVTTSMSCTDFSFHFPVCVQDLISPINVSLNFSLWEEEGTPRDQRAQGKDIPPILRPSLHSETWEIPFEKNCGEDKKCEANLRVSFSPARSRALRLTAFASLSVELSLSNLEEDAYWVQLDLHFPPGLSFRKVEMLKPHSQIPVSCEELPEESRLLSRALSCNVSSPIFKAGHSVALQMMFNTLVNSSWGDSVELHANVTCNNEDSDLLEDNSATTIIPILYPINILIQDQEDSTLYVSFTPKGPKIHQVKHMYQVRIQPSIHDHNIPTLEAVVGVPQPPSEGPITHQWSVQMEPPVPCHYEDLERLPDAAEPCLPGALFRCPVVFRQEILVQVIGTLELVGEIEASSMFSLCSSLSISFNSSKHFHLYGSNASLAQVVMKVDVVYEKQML
Sequence of LFA-1 integrin (open conformation) (P05107 23-700, further chain): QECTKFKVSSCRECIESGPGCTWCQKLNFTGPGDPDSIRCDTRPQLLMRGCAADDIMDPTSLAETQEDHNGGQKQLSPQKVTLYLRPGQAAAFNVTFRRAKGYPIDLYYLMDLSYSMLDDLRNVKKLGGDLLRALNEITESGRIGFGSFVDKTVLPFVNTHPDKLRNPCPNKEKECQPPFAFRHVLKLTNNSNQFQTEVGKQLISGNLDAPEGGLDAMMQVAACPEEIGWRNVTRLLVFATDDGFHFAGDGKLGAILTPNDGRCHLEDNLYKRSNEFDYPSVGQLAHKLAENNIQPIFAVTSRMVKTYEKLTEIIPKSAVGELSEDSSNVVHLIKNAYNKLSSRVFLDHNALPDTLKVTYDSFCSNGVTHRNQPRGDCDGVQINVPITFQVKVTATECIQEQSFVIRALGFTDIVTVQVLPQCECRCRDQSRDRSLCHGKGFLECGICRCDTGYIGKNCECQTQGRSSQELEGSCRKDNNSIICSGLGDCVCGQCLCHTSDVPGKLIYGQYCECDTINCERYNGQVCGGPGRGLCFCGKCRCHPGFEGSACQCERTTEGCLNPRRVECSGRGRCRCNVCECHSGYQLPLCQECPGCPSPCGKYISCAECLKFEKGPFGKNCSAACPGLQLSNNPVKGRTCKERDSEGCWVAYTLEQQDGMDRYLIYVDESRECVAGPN
Sequence of LFA-1 integrin (closed conformation) (P20701 26-1090): as the sequence (P20701 26-1090) above
Sequence of LFA-1 integrin (closed conformation) (P05107 23-700, further chain): as the sequence (P05107 23-700, further chain) above

## LFA-1 integrin (open conformation) (from UniProt P20701)
ICAM (Homo sapiens) [1]
  pKd: 6.40

## LFA-1 integrin (closed conformation) (from UniProt P20701)
ICAM (Homo sapiens) [2]
  pKd: 4.00
